Measured values published in patent US20210107958A1, “GLYPICAN EPITOPES AND USES THEREOF” (MINOMIC INTERNATIONAL LTD., priority 2015, published 2021).

Legend:
Format in all cases: binding
glypican-1 [1] = target: T1, glypican-1 (Homo sapiens, UniProt P35052); test: Immunoprecipitation and western blot of DU-145 or C3 (MIL38 negative) MPEK extracts
T1 construct: endogenous in cells; host or cells: DU-145 prostate cancer cells (membrane protein extract)
T1 sequence (P35052 24-558): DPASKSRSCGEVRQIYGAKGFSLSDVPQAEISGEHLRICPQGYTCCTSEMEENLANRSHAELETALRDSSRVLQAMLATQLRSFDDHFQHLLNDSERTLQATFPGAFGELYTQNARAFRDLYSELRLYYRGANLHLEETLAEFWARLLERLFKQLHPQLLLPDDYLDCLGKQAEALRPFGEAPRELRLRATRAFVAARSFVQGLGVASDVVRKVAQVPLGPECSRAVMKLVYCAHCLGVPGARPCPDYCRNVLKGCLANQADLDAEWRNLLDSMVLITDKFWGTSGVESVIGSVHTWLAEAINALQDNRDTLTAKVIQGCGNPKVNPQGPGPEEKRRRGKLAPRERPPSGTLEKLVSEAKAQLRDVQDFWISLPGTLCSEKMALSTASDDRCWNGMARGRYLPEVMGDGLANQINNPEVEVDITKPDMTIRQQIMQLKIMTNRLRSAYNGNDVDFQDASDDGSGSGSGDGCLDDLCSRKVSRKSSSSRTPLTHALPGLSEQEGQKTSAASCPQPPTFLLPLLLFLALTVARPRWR
Text: MIL38 or rabbit anti-GPC-1 antibodies were used to immunoprecipitate their respective antigens from DU-145 or C3 (MIL38 negative) MPEK extracts. The immunoprecipitates (IPs) were western blotted with either MIL38 or anti-GPC-1 antibody (FIG. 15).
MIL38 and rabbit anti-GPC-1 antibodies were each used to immunoprecipitate their antigens from DU-145 prostate cancer or C3 (MIL38 negative) cell membrane protein extracts. Shown are the western blots of the immunoprecipitations detected with either MIL38 or anti-GPC-1 antibody. FIG. 15A depicts GPC1 detection of MIL38 immunoprecipitates (left) and MIL38 detection of GPC1 immunoprecipitates (right). FIG. 15B depicts MIL38 detection of MIL38 immunoprecipitates as a control. Lanes are: Magic Mark-commercial protein marker as control; DU145 MPEK-prostate cancer membrane protein extract (not immunoprecipitated); DU145 FT-prostate cancer flow through from immune precipitation; DU145 IP-immunoprecipitate using antibody; C3 MPEK-(MIL38 negative) control membrane protein extract (not immunoprecipitated); C3 FT-flow through from immune precipitation; C3 IP elution-(MIL38 negative) immunoprecipitate using antibody. MIL38 can detect the immunoprecipitate from rGPC1 antibody and vice versa. MIL38 can also bind to all controls including DU145 MPEK and to IP conducted by MIL38.

MIL38 antigen = target: T2, MIL38 antigen (Homo sapiens, UniProt P35052); test: Western blot of membrane protein extracts from normal prostate and prostate cancer; conditions: equivalent amounts of protein
T2 construct: tissue Novus Bio; host or cells: membrane protein extracts of normal prostate and prostate cancer
T2 sequence (P35052 24-558): T1 sequence (P35052 24-558)
Text: To determine if MIL38 antigen could be detected in membrane protein extracts from normal prostate and prostate cancer, one sample of each was obtained from Novus Bio. Equivalent amounts of protein were western blotted using MIL38 antibody (FIG. 16B).

human glypican-1 (GPC-1) = test: PEPSCAN-based ELISA on linear and CLIPS peptide arrays (sets 1-5) spanning GPC-1
Text: The following human glypican-1 (GPC-1) sequence was used as a basis to generate a library of structured peptides.
To reconstruct discontinuous epitopes of the target molecule a library of structured peptides was synthesized. This was done using Chemically Linked Peptides on Scaffolds (CLIPS) technology. CLIPS technology allowed the generation of structured peptides in single loops, double-loops, triple loops, sheet-like folds, helix-like folds and combinations thereof. CLIPS templates were coupled to cysteine residues. The side-chains of multiple cysteines in the peptides were coupled to one or two CLIPS templates. For example, a 0.5 mM solution of the T2 CLIPS template 1,3-bis (bromomethyl) benzene was dissolved in ammonium bicarbonate (20 mM, pH 7.9)/acetonitrile (1:1(v/v)). This solution was added onto the peptide arrays. The CLIPS template bound to side-chains of two cysteines as present in the solid-phase bound peptides of the peptide-arrays (455 wells plate with 3 μl wells). The peptide arrays were gently shaken in the solution for 30 to 60 minutes while completely covered in solution. Finally, the peptide arrays were washed extensively with excess of H2O and sonicated in disrupt-buffer containing 1 percent SDS/0.1 percent beta-mercaptoethanol in PBS (pH 7.2) at 70° C. for 30 minutes, followed by sonication in H2O for another 45 minutes. The T3 CLIPS carrying peptides were made in a similar way but with three cysteines.
The binding of antibody to each of the synthesized peptides was tested in a PEPSCAN-based ELISA. The peptide arrays were incubated with primary antibody solution (overnight at 4° C.). […] After one hour, the color development was measured. The color development was quantified with a charge coupled device (CCD)-camera and an image processing system.
The values obtained from the CCD camera ranged from 0 to 3000 mAU, similar to a standard 96-well plate ELISA-reader. The results were quantified and stored in the Peplab database. […] The cards were manually inspected and any values caused by an air-bubble were scored as 0. […]

glypican-1 core protein = target: T3, glypican-1 core protein (Homo sapiens, UniProt P35052); test: 2D electrophoresis and western blotting of DU-145 MPEK extracts
T3 construct: endogenous in cells; host or cells: DU-145 prostate cancer cells (membrane protein extract)
T3 sequence (P35052 24-558): T1 sequence (P35052 24-558)
Text: To confirm that MIL38 recognized glypican-1, prostate cancer DU-145 MPEK extracts were subjected to 2D electrophoresis and western blotting.
Membrane protein extracts (MPEK) of DU-145 prostate cancer cells were separated on 2D gel (pI gradient-horizontal, and molecular mass vertical). Western blots using MIL38 antibody and commercial rGPC-1 rabbit polyclonal antibodies show overlapping reactivity marking a 60Kd protein (circled in FIG. 14). Lane D (FIG. 14) is a one dimension separation for DU-145 extracts as a control. Lane M (FIG. 14) is a one dimension separation lane for molecular size markers as controls.

glypican-1 [2] = target: T4, glypican-1 (Homo sapiens, UniProt P35052); test: MIL38 immunoprecipitation and western blot of plasma samples (normal and prostate cancer patient)
T4 construct: from tissue; host or cells: human plasma (patients 042 and 046), with or without heparinase treatment
T4 sequence (P35052 24-530 limits assumed): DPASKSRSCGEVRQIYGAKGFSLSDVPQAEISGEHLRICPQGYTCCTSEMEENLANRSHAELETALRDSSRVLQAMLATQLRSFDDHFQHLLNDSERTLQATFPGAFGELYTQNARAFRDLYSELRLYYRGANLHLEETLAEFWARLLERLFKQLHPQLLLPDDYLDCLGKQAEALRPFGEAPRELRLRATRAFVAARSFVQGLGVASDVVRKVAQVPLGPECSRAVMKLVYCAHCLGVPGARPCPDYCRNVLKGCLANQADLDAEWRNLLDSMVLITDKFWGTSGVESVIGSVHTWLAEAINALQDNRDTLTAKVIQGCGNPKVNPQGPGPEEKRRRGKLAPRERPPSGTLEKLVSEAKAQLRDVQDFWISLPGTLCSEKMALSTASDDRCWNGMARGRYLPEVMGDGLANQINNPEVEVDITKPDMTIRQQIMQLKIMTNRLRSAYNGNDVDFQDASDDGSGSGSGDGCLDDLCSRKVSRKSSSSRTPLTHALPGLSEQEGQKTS
Text: Plasma samples from one normal patient (042) and one prostate cancer patient (046) were immunoprecipitated with MIL38 antibody and the IP sample western blotted with MIL38 and anti-GPC-1 antibodies (FIG. 16A).

B1: MIL38-AM4: Murine anti human glypican 1 monoclonal antibody produced by hybridoma cells deposited at Cellbank Australia under accession number CBA20140026 (antibody)
heavy: QIQLVQSGPELKKPGETVKISCKASGYAFTDYSMNWVKQAPGKGLRWMGWINTETGEPTYTDDFKGRFAFSLETSASTAFLQINNLRNEDTATYFCARHYDYGGFPYWGQGTLVTVSAAKTTPPSVYPLAPGSAAQTNSMVTLGCLVKGYFPEPVTVTWNSGSLSSGVHTFPAVLQSDLYTLSSSVTVPSSTWPSETVTCNVAHPASSTKVDKKIVPRDCGCKPCICTVPEVSSVFIFPPKPKDVLTITLTPKVTCVVVDISKDDPEVQFSWFVDDVEVHTAQTQPREEQFNSTFRSVSELPIMHQDWLNGKEFKCRVNSAAFPAPIEKTISKTKGRPKAPQVYTIPPPKEQMAKDKVSLTCMITDFFPEDITVEWQWNGQPAENYKNTQPIMDTDGSYFVYSKLNVQKSNWEAGNTFTCSVLHEGLHNHHTEKSLSHSPGK
light: DIQMTQSPASLSASVGETVTITCRASGNVHNYLAWYQQKQGKSPQLLVYTAKTLADGVPSRFSGSGSGTQYSLKINSLQPEDFGTYYCQHFWSNPWTFGGGTKLEIKRADAAPTVSIFPPSSEQLTSGGASVVCFLNNFYPKDINVKWKIDGSERQNGVLNSWTDQDSKDSTYSMSSTLTLTKDEYERHNSYTCEATHKTSTSPIVKSFNRNEC
- depletion of MIL38 and anti-GPC-1 antigens by immunoprecipitation (glypican-1 [1]; DU-145 MPEK flow through): almost complete depletion
- reactive band detected in the other antibody's immunoprecipitate (glypican-1 [1]; DU-145 MPEK, IP with one antibody, blot with the other): 60 kDa
- expression of MIL38 antigen in prostate cancer extract versus normal prostate sample (MIL38 antigen): much higher
- ELISA response versus antibody concentration (human glypican-1 (GPC-1); 1 μg/ml and 10 μg/ml, normal stringency): concentration dependent response
- saturation of ELISA signal (human glypican-1 (GPC-1); 10 μg/ml): saturation was not observed
- stretches / common cores of GPC-1 recognized on the peptide arrays (human glypican-1 (GPC-1); peptide sets 1-5 (linear, loop, helical, sheet)): 135TQNARAFRD143 (SEQ ID NO: 7) and 348[…]358 (SEQ ID NO: 2)
- molecular weight of protein detected (glypican-1 core protein): 60 kDa
- specific bands detected in plasma immunoprecipitates (glypican-1 [2]; MIL38 IP of both plasma samples): approx. 70 kDa
- signal in prostate cancer patient plasma compared to normal patient plasma (glypican-1 [2]; patient 046 vs 042): markedly higher
